According to patent US20240325495A1, “FUSION PROTEINS FOR THE TREATMENT OF DISEASE” (Bristol-Myers Squibb Company, priority 2020, published 2024):
Where two headings read alike, the source gives them in different places.

How the values were obtained:
[1] = target: T1, IL-2Rβγ (as a pre-assembled heterodimer) (Mus musculus, UniProt P16297+P34902); assay: Binding affinity to mouse IL-2Rβγ
T1 sequence (P16297 27-240 limits assumed): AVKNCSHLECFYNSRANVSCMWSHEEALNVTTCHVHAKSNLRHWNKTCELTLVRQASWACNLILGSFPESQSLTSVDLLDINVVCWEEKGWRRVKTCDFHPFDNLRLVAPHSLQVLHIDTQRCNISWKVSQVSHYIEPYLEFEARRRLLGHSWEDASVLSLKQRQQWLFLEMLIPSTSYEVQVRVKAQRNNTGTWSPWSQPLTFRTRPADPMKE
T1 sequence (P34902 23-263 limits assumed): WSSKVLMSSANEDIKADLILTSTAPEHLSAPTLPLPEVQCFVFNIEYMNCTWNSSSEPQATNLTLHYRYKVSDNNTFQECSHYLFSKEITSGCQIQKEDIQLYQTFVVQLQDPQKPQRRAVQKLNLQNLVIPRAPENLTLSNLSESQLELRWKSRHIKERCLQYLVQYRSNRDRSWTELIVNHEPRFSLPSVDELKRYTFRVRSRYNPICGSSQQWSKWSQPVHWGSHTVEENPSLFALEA

[2] = test system: pSTAT5 in Tregs, Tconv, CD8 cells and NK cells; assay: Whole blood pSTAT5 assay, selectivity across cell types; format: cell-based
[3] = test system: monkeys; assay: Single-dose exploratory tolerability PK/PD study, SC, monkeys
[4] = Linker-cleavage ex vivo in monkey serum samples (LC-MS/MS); format: in vitro ADME; conditions: monkey serum samples ex vivo after SC administration, up to 168 hours
Experimental: (§1) Various in vitro and in vivo studies were conducted to characterize the PK of BMS-986326 in the nonclinical setting.

[5] = test system: monkeys; conditions: monkey, in vivo
[6] = test system: monkeys; conditions: monkey, in vivo, sc
[7] = test system: monkeys; assay: Toxicity studies in monkeys: ADA and PD effects; format: in vivo
Text: (§2) The single- and repeat-dose toxicity of BMS-986326 were characterized in a series of studies in rats for up to 2 weeks and in monkeys up to 12 weeks using selected dosing frequencies. Pivotal good laboratory practice (GLP) repeat-dose studies in both species employed SC administration of BMS-986326 and consisted of two 2-week studies in rats using differing dose frequencies (once weekly [QW] vs twice weekly [2QW]), a 2-week once weekly dosing study in monkeys, and a 12-week (once every 3 week, Q3W) dosing study in monkeys. In addition, single-dose exploratory studies were initially completed in both rats and monkeys to explore the tolerability of BMS-986326, and a single-dose GLP IV toxicity and cardiovascular safety study was also completed in telemeterized monkeys using IV dosing to support IV administration in the first-in-human (FIH) single-ascending dose (SAD) study (IM034001).
(§3) In rats, BMS-986326 was noted to be highly immunogenic, with ADA formation occurring in 84% of BMS-986326-treated rats. In general, the presence of ADA was associated with reduced exposure and loss of PD activity, but was not associated with toxicity.
(§4) Intended and unintended PD effects occurred in a dose-dependent manner across all doses of each toxicity study and were generally more pronounced in monkeys than in rats. As an IL-2R agonist, BMS-986326 induced maximal phosphorylation of STAT5 in Treg cells (72% to 95%) across all doses in rats and monkeys, increased Treg cells (up to 63× in monkeys) and/or CD25 expression on CD4 Tregs (up to 4.5× in rats), and raised serum levels of IL-10 (up to 2× in rats and 87× in monkeys). In addition to the desired pharmacologic effects on Tregs, BMS-986326 also led to unintended effects including dose-dependent activation of conventional CD4 and CD8 T cell populations and NK cells, with concomitant elevation of serum IL-5, MCP-1, and perforin. At higher doses of BMS-986326 when dosed weekly in monkeys, increases in B cells (1.6×) and other inflammatory cytokines such as […] (7.9×), IL-1Ra (49×), and IL-6 (5.1×) were also noted. These inflammatory cytokines were not elevated when lower doses of BMS-986326 were given less frequently (Q3W) in the 12-week monkey toxicity study.

[8] = test system: rats; assay: 2-week toxicity study in rats, twice weekly SC; format: in vivo
Text: The highest exposures were noted during the first week of each study and diminished considerably during the second week, due to ADA impact. […] Splenic capsular fibroplasia with inflammation was considered adverse at all twice weekly doses due to moderate to marked severity and was also associated with minimal to mild inflammation in the mesentery (adjacent to the stomach and pancreas), which further contributed to the adversity of the finding. […] The primary BMS-986326-related effects were mostly minimal in severity at all once weekly doses (0.25, 0.5, or 1 mg/kg) and included increased eosinophils (1.9× to 6.7×); minimal capsular fibroplasia/fibrosis of spleen without inflammation or involvement of adjacent mesentery; and pharmacologically mediated infiltration of eosinophils into a few tissues, none of which were considered adverse due to low magnitude of change and lack of evidence of any compromise in functional integrity of organs involved.

[9] = Linker-cleavage in human serum in vitro (LC-MS/MS); format: in vitro ADME; conditions: up to 72 hours
Experimental: as §1

[10] = test system: rats; assay: Toxicity studies in rats: ADA and PD effects; format: in vivo
Text: as §2, §3
as §4, with “These inflammatory cytokines were not elevated when lower doses of BMS-986326 were given less frequently (Q3W) in the 12-week monkey toxicity study.” left out

## BMS-986326: recombinant fusion protein of human IL2 and extracellular domain of human CD25, (GGGS)3 linker, non-covalent self-blocking homodimer
[1]
  Kd: > 4 µM
[2]; highest concentration of drug
  % of Tregs pSTAT5+: > 90%
[2]; highest concentration of drug at 71 nM
  % pSTAT5+ cells in Tconv, CD8 cells and NK cells: < 50%
[3]; 2 highest doses tested
  expansion and proliferation of Tconv and CD8+ T cells: dose-dependent expansion and proliferation
[3]; single SC […]
  fold increase of % Treg above pre-dose at peak: 4.8 fold
[3]; single SC dose
  dose not tolerated: 2.5 mg/kg
  well tolerated doses: up to 0.75 mg/kg
[4]
  linker-cleavage: did not show signs of linker-cleavage
[5]
  decreased platelets: 0.9-0.6
  decreased red cell mass versus pretest: 0.9-0.6
  doses with adverse inflammation in eye choroid and choroid plexus of brain: ≥ 0.25 mg/kg/week
  increased liver weights: 16-75%
  number of tissues affected by mixed cell inflammation: 16-28
[5]; 0.75 mg/kg
  clinical signs: adverse clinical signs of toxicity
  increased heart rate: 25-28%
  mean AUC[0-168 h]: ≥ 601 µg·h/mL
[6]; 0.075 mg/kg
  AUC: approximately 48 μg·h/mL
[6]; 0.75 mg/kg
  AUC: ~407 µg·h/mL
  AUC[INF]: 407 µg·h/mL
[7]
  increase in Treg cells: up to 63 ×
  increase in serum levels of IL-10: ≤ 87 ×
[7]; higher doses dosed weekly
  increase in B cells: 1.6 ×
  increase in IFN-7: 7.9 ×
  increase in IL-1Ra: 49 ×
  increase in IL-6: 5.1 ×
[7]; pivotal toxicity studies
  ADA development: generally did not develop
[8]; rat, in vivo
  doses with adverse capsular fibroplasia and inflammation of the spleen: ≥ 0.5 mg/kg
[8]; rat, in vivo, 0.5 mg/kg
  increases in eosinophils versus controls: 3-22 ×
[8]; rats, 2-week studies, all doses
  clinically tolerated doses: ≤ 2.5 mg/kg
[8]; rats, twice weekly dosing study
  NOAEL: a NOAEL was not identified
[8]; rats, ≤[…]
  mean AUC [0-336 h] at tolerated doses: ≤ 600 µg·h/mL
[9]
  linker-cleavage: did not show signs of linker-cleavage
[10]
  ADA formation, % of treated rats: 84%
  increase in CD25 expression on CD4 Tregs: up to 4.5 ×
  increase in serum levels of IL-10: up to 2 ×
